Reference: US20080201790A1, “Method and product for regulating cell responsiveness to external signals” (priority 1993, published 2008)

Molecular target: GST-Ras^V12(GTPγS) agarose (UniProt P01112)
Assay: GST-Ras^V12 agarose pull-down from COS cell lysate, anti-MEKK immunoblot

B1: MEKK1 (protein encoded by p-MEKK1, transiently expressed in COS cells) (enzyme)
chain: MVTAVPAVFSKLVTMLNASGSTHFTRMRRRLMAIADEVEIAEVIQLGVEDTVDGHQDSLQAVAPTSCLENSSLEHTVHREKTGKGLSATRLSASSEDISDRLAGVSVGLPSSTTTEQPKPAVQTKGRPHSQCLNSSPLSHAQLMFPAPSAPCSSAPSVPDISKHRPQAFVPCKIPSASPQTQRKFSLQFQRNCSEHRDSDQLSPVFTQSRPPPSSNIHRPKPSRPVPGSTSKLGDATKSSMTLDLGSASRCDDSFGGGGNSGNAVIPSDETVFTPVEDKCRLDVNTELNSSIEDLLEASMPSSDTTVTFKSEVAVLSPEKAENDDTYKDDVNHNQKCKEKMEAEEEEALAIAMAMSASQDALPIVPQLQVENGEDIIIIQQDTPETLPGHTKAKQPYREDAEWLKGQQIGLGAFSSCYQAQDVGTGTLMAVKQVTYVRNTSSEQEEVVEALREEIRMMGHLNHPNIIRMLGATCEKSNYNLFIEWMAGGSVAHLLSKYGAFKESVVINYTEQLLRGLSYLHENQIIHRDVKGANLLIDSTGQRLRIADFGAAARLASKGTGAGEFQGQLLGTIAFMAPEVLRGQQYGRSCDVWSVGCAIIEMACAKPPWNAEKHSNHLALIFKIASATTAPSIPSHLSPGLRDVAVRCLELQPQDRPPSRELLKHPVFRTTW
fold binding relative to GST-Ras^V12(GDP): > 5 fold
